Paper doi:10.1101/2023.08.25.554913 (bioRxiv, 2023)

Biological target: the molecule itself
Assay: SEC

B1: PfuAmyGT (PF0272) from Pyrococcus furiosus, wild type (enzyme, UniProt P49067 1-649, looked up)
chain: MGDKINFIFGIHNHQPLGNFGWVFEEAYEKCYWPFLETLEEYPNMKVAIHTSGPLIEWLQDNRPEYIDLLRSLVKRGQVEIVVAGFYEPVLASIPKEDRIEQIRLMKEWAKSIGFDARGVWLTERVWQPELVKTLKESGIDYVIVDDYHFMSAGLSKEELYWPYYTEDGGEVIAVFPIDEKLRYLIPFRPVDKVLEYLHSLIDGDESKVAVFHDDGEKFGIWPGTYEWVYEKGWLREFFDRISSDEKINLMLYTEYLEKYKPRGLVYLPIASYFEMSEWSLPAKQARLFVEFVNELKVKGIFEKYRVFVRGGIWKNFFYKYPESNYMHKRMLMVSKLVRNNPEARKYLLRAQCNDAYWHGLFGGVYLPHLRRAIWNNLIKANSYVSLGKVIRDIDYDGFEEVLIENDNFYAVFKPSYGGSLVEFSSKNRLVNYVDVLARRWEHYHGYVESQFDGVASIHELEKKIPDEIRKEVAYDKYRRFMLQDHVVPLGTTLEDFMFSRQQEIGEFPRVPYSYELLDGGIRLKREHLGIEVEKTVKLVNDGFEVEYIVNNKTGNPVLFAVELNVAVQSIMESPGVLRGKEIVVDDKYAVGKFALKFEDEMEVWKYPVKTLSQSESGWDLIQQGVSYIVPIRLEDKIRFKLKFEEASG
- stoichiometry N: 2
